Laboratory results published in the supplement of paper PMC9112550, “Optimization of the antimicrobial peptide Bac7 by deep mutational scanning” (BMC Biology, 2022).

Test system: Escherichia coli TOP10
Assay: shrunken log2 fold change of peptide-encoding DNA abundance (4.5 h post-induction vs induction); higher = less antimicrobial activity (less host growth inhibition)
Settings: time post-induction: 4.5 h; library: site-saturation at positions 5, 18, 19, 20
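Further: peptides expressed intracellularly from a pBAD plasmid library in pooled LB shake-flask culture, induced with 0.3% L-arabinose, DNA abundance read by NGS, three biological replicates, DESeq2 with apeglm shrinkage.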

Sequence	shrunken log2 fold change
RRIRQRPPRLPRPRPRPVCGPRP	0.205
RRIRARPPRLPRPRPRPFTFPRP	-0.0365
RRIRDRPPRLPRPRPRPRFPPRP	1.75
RRIRRRPPRLPRPRPRPAYDPRP	0.0406
RRIRIRPPRLPRPRPRPRLNPRP	-0.247
RRIRYRPPRLPRPRPRPGPCPRP	-0.227
RRIRQRPPRLPRPRPRPYMHPRP	-0.512
RRIRWRPPRLPRPRPRPMGVPRP	-0.00743
RRIRHRPPRLPRPRPRPAPQPRP	0.588
RRIRARPPRLPRPRPRPEGIPRP	0.0659
RRIRLRPPRLPRPRPRPSVKPRP	-0.0487
RRIRRRPPRLPRPRPRPLDNPRP	-0.0599
RRIRYRPPRLPRPRPRPPTVPRP	-0.146
RRIRIRPPRLPRPRPRPWENPRP	-0.00674
RRIRHRPPRLPRPRPRPFLIPRP	-0.687
RRIRERPPRLPRPRPRPSFIPRP	-0.906
RRIRERPPRLPRPRPRPWDGPRP	0.421
RRIRPRPPRLPRPRPRPPTYPRP	-0.204
RRIRWRPPRLPRPRPRPFVWPRP	0.128
RRIRFRPPRLPRPRPRPNRDPRP	-0.0824
RRIRTRPPRLPRPRPRPMHYPRP	-1.41
RRIRFRPPRLPRPRPRPMEHPRP	-0.416
RRIRDRPPRLPRPRPRPPTHPRP	0.21
RRIRVRPPRLPRPRPRPMWNPRP	-0.0504
RRIRWRPPRLPRPRPRPMCIPRP	-0.102

Sequence	shrunken log2 fold change
RRIRERPPRLPRPRPRPECMPRP	-0.0491
RRIRPRPPRLPRPRPRPFPTPRP	-0.189
RRIRFRPPRLPRPRPRPHCHPRP	-0.59
RRIRQRPPRLPRPRPRPGIGPRP	-0.005
RRIRPRPPRLPRPRPRPCIQPRP	-0.209
RRIRGRPPRLPRPRPRPIVYPRP	-0.0951
RRIRCRPPRLPRPRPRPRVMPRP	0.278
RRIRSRPPRLPRPRPRPYCHPRP	-0.532
RRIRFRPPRLPRPRPRPAGRPRP	0.294
RRIRLRPPRLPRPRPRPERHPRP	0.27
RRIRTRPPRLPRPRPRPAWWPRP	0.615
RRIRCRPPRLPRPRPRPPIIPRP	-0.294
RRIRKRPPRLPRPRPRPRYTPRP	-0.113
RRIRGRPPRLPRPRPRPWVTPRP	0.0039
RRIRQRPPRLPRPRPRPPTDPRP	0.0902
RRIRNRPPRLPRPRPRPPPSPRP	1
RRIRARPPRLPRPRPRPVGGPRP	0.571
RRIRARPPRLPRPRPRPKQQPRP	0.569
RRIRNRPPRLPRPRPRPNQRPRP	0.0166
RRIRLRPPRLPRPRPRPCAQPRP	-0.161
RRIRHRPPRLPRPRPRPCCWPRP	0.015
RRIRLRPPRLPRPRPRPQKCPRP	-0.222
RRIRVRPPRLPRPRPRPNGEPRP	0.0914
RRIRCRPPRLPRPRPRPPGQPRP	0.494
RRIRWRPPRLPRPRPRPFREPRP	-0.105

Sequence	shrunken log2 fold change
RRIRGRPPRLPRPRPRPTTFPRP	0.608
RRIRWRPPRLPRPRPRPILPPRP	-0.0759
RRIRPRPPRLPRPRPRPWFCPRP	0.138
RRIRPRPPRLPRPRPRPHWGPRP	0.0167
RRIRPRPPRLPRPRPRPQVDPRP	-0.0328
RRIRWRPPRLPRPRPRPKAMPRP	0.176
RRIRYRPPRLPRPRPRPRAKPRP	0.404
RRIRGRPPRLPRPRPRPWNDPRP	-0.222
RRIRVRPPRLPRPRPRPHEYPRP	-0.419
RRIRNRPPRLPRPRPRPAQHPRP	0.00182
RRIRWRPPRLPRPRPRPTFWPRP	0.617
RRIRFRPPRLPRPRPRPWRNPRP	-0.133
RRIRRRPPRLPRPRPRPVRSPRP	0.551
RRIRIRPPRLPRPRPRPMTYPRP	-0.0592
RRIRFRPPRLPRPRPRPCIAPRP	-0.166
RRIRWRPPRLPRPRPRPNAQPRP	-0.0306
RRIRRRPPRLPRPRPRPQRCPRP	0.177
RRIRNRPPRLPRPRPRPQSQPRP	-0.7
RRIRWRPPRLPRPRPRPHYRPRP	0.0266
RRIRWRPPRLPRPRPRPNHAPRP	0.601
RRIRTRPPRLPRPRPRPGFTPRP	-0.0298
RRIRDRPPRLPRPRPRPHYQPRP	0.0231
RRIRVRPPRLPRPRPRPWIPPRP	-0.513
RRIRARPPRLPRPRPRPPKLPRP	0.683
RRIRARPPRLPRPRPRPDEMPRP	0.546

Sequence	shrunken log2 fold change
RRIRFRPPRLPRPRPRPDWLPRP	-0.0152
RRIRKRPPRLPRPRPRPMPNPRP	0.399
RRIRCRPPRLPRPRPRPARHPRP	0.061
RRIRKRPPRLPRPRPRPSHSPRP	-0.47
RRIRCRPPRLPRPRPRPPVDPRP	0.787
RRIRYRPPRLPRPRPRPTKNPRP	-0.495
RRIRVRPPRLPRPRPRPAIGPRP	0.045
RRIRERPPRLPRPRPRPGCHPRP	-0.0878
RRIRPRPPRLPRPRPRPKICPRP	-0.0701
RRIRDRPPRLPRPRPRPFTIPRP	-0.0247
RRIRLRPPRLPRPRPRPIEHPRP	-0.31
RRIRMRPPRLPRPRPRPMSSPRP	0.0418
RRIRGRPPRLPRPRPRPPNQPRP	0.535
RRIRPRPPRLPRPRPRPPGGPRP	0.968
RRIRQRPPRLPRPRPRPNETPRP	-0.0269
RRIRTRPPRLPRPRPRPRNKPRP	-0.342
RRIRTRPPRLPRPRPRPYFWPRP	-0.299
RRIRQRPPRLPRPRPRPGCGPRP	0.442
RRIRKRPPRLPRPRPRPNITPRP	-0.0249
RRIRGRPPRLPRPRPRPRYAPRP	0.399
RRIRGRPPRLPRPRPRPSIVPRP	0.124
RRIRDRPPRLPRPRPRPMWYPRP	-0.0225
RRIRTRPPRLPRPRPRPWYYPRP	-0.117
RRIRLRPPRLPRPRPRPHQNPRP	-0.149
RRIRIRPPRLPRPRPRPLTVPRP	-0.114

Sequence	shrunken log2 fold change
RRIRMRPPRLPRPRPRPICIPRP	0.0141
RRIRMRPPRLPRPRPRPTAPPRP	0.905
RRIRYRPPRLPRPRPRPTACPRP	-0.13
RRIRTRPPRLPRPRPRPFHIPRP	0.0392
RRIRFRPPRLPRPRPRPVVRPRP	0.153
RRIRVRPPRLPRPRPRPQYIPRP	-0.655
RRIRQRPPRLPRPRPRPSICPRP	-0.443
RRIRRRPPRLPRPRPRPDVDPRP	0.505
RRIRGRPPRLPRPRPRPSASPRP	1.77
RRIRFRPPRLPRPRPRPAANPRP	0.22
RRIRGRPPRLPRPRPRPERNPRP	0.855
RRIRSRPPRLPRPRPRPEPCPRP	0.108
RRIRVRPPRLPRPRPRPYKGPRP	-0.294
RRIRPRPPRLPRPRPRPYRHPRP	-0.483
RRIRNRPPRLPRPRPRPHCNPRP	-0.196
RRIRARPPRLPRPRPRPDYIPRP	0.00625
RRIRWRPPRLPRPRPRPLRYPRP	-0.0913
RRIRPRPPRLPRPRPRPFVNPRP	-0.196
RRIRIRPPRLPRPRPRPIFKPRP	-0.226
RRIRLRPPRLPRPRPRPNPKPRP	-0.0548
RRIRFRPPRLPRPRPRPKYWPRP	-0.176
RRIRSRPPRLPRPRPRPLVFPRP	-0.0421
RRIRQRPPRLPRPRPRPEEFPRP	-0.0679
RRIRRRPPRLPRPRPRPRCYPRP	0.00798
RRIRDRPPRLPRPRPRPVFMPRP	0.11
